Laboratory results from publication PMC4279232.

Molecular target: recombinant GST-FAM21 356–600
Assay: SPR

Substance: MBP-CCDC93 (448–631) (from UniProt Q567U6 448-631) (domain or fragment)
- Kd: 0.3 to 0.6 nM
